Measurements published in the supplement of paper PMC9112550, “Optimization of the antimicrobial peptide Bac7 by deep mutational scanning” (BMC Biology, 2022).

Tested on: Escherichia coli TOP10
Test: shrunken log2 fold change of peptide-encoding DNA abundance (4.5 h post-induction vs induction); higher = less antimicrobial activity (less host growth inhibition)
Conditions: time post-induction: 4.5 h; library: site-saturation at positions 5, 18, 19, 20
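Note: peptides expressed intracellularly from a pBAD plasmid library in pooled LB shake-flask culture, induced with 0.3% L-arabinose, DNA abundance read by NGS, three biological replicates, DESeq2 with apeglm shrinkage.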

RRIRSRPPRLPRPRPRPTITPRP
shrunken log2 fold change: -0.229

RRIRSRPPRLPRPRPRPTLRPRP
shrunken log2 fold change: -0.197

RRIRSRPPRLPRPRPRPTLTPRP
shrunken log2 fold change: 0.206

RRIRSRPPRLPRPRPRPTMLPRP
shrunken log2 fold change: -0.119

RRIRSRPPRLPRPRPRPTNMPRP
shrunken log2 fold change: -0.465

RRIRSRPPRLPRPRPRPTQKPRP
shrunken log2 fold change: 0.375

RRIRSRPPRLPRPRPRPTQRPRP
shrunken log2 fold change: 0.547

RRIRSRPPRLPRPRPRPTRQPRP
shrunken log2 fold change: 0.215

RRIRSRPPRLPRPRPRPTRSPRP
shrunken log2 fold change: 0.784

RRIRSRPPRLPRPRPRPTRYPRP
shrunken log2 fold change: -0.198

RRIRSRPPRLPRPRPRPTVYPRP
shrunken log2 fold change: 0.0113

RRIRSRPPRLPRPRPRPTWAPRP
shrunken log2 fold change: 0.518

RRIRSRPPRLPRPRPRPTWGPRP
shrunken log2 fold change: 0.134

RRIRSRPPRLPRPRPRPTWNPRP
shrunken log2 fold change: -0.0149

RRIRSRPPRLPRPRPRPTYMPRP
shrunken log2 fold change: -0.55

RRIRSRPPRLPRPRPRPVAIPRP
shrunken log2 fold change: -0.28

RRIRSRPPRLPRPRPRPVASPRP
shrunken log2 fold change: -0.151

RRIRSRPPRLPRPRPRPVCMPRP
shrunken log2 fold change: -0.053

RRIRSRPPRLPRPRPRPVDCPRP
shrunken log2 fold change: -0.12

RRIRSRPPRLPRPRPRPVEAPRP
shrunken log2 fold change: -0.0651

RRIRSRPPRLPRPRPRPVEHPRP
shrunken log2 fold change: -0.16

RRIRSRPPRLPRPRPRPVEKPRP
shrunken log2 fold change: -0.0804

RRIRSRPPRLPRPRPRPVELPRP
shrunken log2 fold change: 0.105

RRIRSRPPRLPRPRPRPVFHPRP
shrunken log2 fold change: -0.026

RRIRSRPPRLPRPRPRPVFRPRP
shrunken log2 fold change: -0.113

RRIRSRPPRLPRPRPRPVGCPRP
shrunken log2 fold change: 0.281

RRIRSRPPRLPRPRPRPVGMPRP
shrunken log2 fold change: 0.12

RRIRSRPPRLPRPRPRPVGPPRP
shrunken log2 fold change: 0.373

RRIRSRPPRLPRPRPRPVIRPRP
shrunken log2 fold change: -0.213

RRIRSRPPRLPRPRPRPVKEPRP
shrunken log2 fold change: 0.0656

RRIRSRPPRLPRPRPRPVLDPRP
shrunken log2 fold change: -0.058

RRIRSRPPRLPRPRPRPVLEPRP
shrunken log2 fold change: 0.0953

RRIRSRPPRLPRPRPRPVLNPRP
shrunken log2 fold change: -0.169

RRIRSRPPRLPRPRPRPVLRPRP
shrunken log2 fold change: 0.0904

RRIRSRPPRLPRPRPRPVLVPRP
shrunken log2 fold change: 0.242

RRIRSRPPRLPRPRPRPVMSPRP
shrunken log2 fold change: 0.11

RRIRSRPPRLPRPRPRPVNRPRP
shrunken log2 fold change: -0.107

RRIRSRPPRLPRPRPRPVQLPRP
shrunken log2 fold change: 0.348

RRIRSRPPRLPRPRPRPVQRPRP
shrunken log2 fold change: 0.363

RRIRSRPPRLPRPRPRPVRKPRP
shrunken log2 fold change: 0.324

RRIRSRPPRLPRPRPRPVSNPRP
shrunken log2 fold change: -0.0276

RRIRSRPPRLPRPRPRPVYEPRP
shrunken log2 fold change: -0.617

RRIRSRPPRLPRPRPRPVYKPRP
shrunken log2 fold change: -0.166

RRIRSRPPRLPRPRPRPVYTPRP
shrunken log2 fold change: -0.105

RRIRSRPPRLPRPRPRPWAIPRP
shrunken log2 fold change: -0.191

RRIRSRPPRLPRPRPRPWCAPRP
shrunken log2 fold change: 0.0451

RRIRSRPPRLPRPRPRPWCRPRP
shrunken log2 fold change: -0.398

RRIRSRPPRLPRPRPRPWDTPRP
shrunken log2 fold change: -0.0299

RRIRSRPPRLPRPRPRPWFHPRP
shrunken log2 fold change: -0.664

RRIRSRPPRLPRPRPRPWGAPRP
shrunken log2 fold change: 0.0522

RRIRSRPPRLPRPRPRPWGKPRP
shrunken log2 fold change: -0.109

RRIRSRPPRLPRPRPRPWGNPRP
shrunken log2 fold change: -0.236

RRIRSRPPRLPRPRPRPWHAPRP
shrunken log2 fold change: 0.0362

RRIRSRPPRLPRPRPRPWHNPRP
shrunken log2 fold change: -0.00544

RRIRSRPPRLPRPRPRPWKGPRP
shrunken log2 fold change: -0.0267

RRIRSRPPRLPRPRPRPWKPPRP
shrunken log2 fold change: -0.0117

RRIRSRPPRLPRPRPRPWLEPRP
shrunken log2 fold change: -0.0707

RRIRSRPPRLPRPRPRPWLKPRP
shrunken log2 fold change: 0.0524

RRIRSRPPRLPRPRPRPWLYPRP
shrunken log2 fold change: -0.652

RRIRSRPPRLPRPRPRPWNAPRP
shrunken log2 fold change: -0.443

RRIRSRPPRLPRPRPRPWNRPRP
shrunken log2 fold change: -0.125

RRIRSRPPRLPRPRPRPWNTPRP
shrunken log2 fold change: -0.237

RRIRSRPPRLPRPRPRPWRFPRP
shrunken log2 fold change: 0.566

RRIRSRPPRLPRPRPRPWSMPRP
shrunken log2 fold change: -0.176

RRIRSRPPRLPRPRPRPWTDPRP
shrunken log2 fold change: -0.12

RRIRSRPPRLPRPRPRPWVLPRP
shrunken log2 fold change: 2.29

RRIRSRPPRLPRPRPRPWYQPRP
shrunken log2 fold change: -0.314

RRIRSRPPRLPRPRPRPYAGPRP
shrunken log2 fold change: 0.0441

RRIRSRPPRLPRPRPRPYAVPRP
shrunken log2 fold change: -0.137

RRIRSRPPRLPRPRPRPYDQPRP
shrunken log2 fold change: -0.21

RRIRSRPPRLPRPRPRPYDTPRP
shrunken log2 fold change: -0.532

RRIRSRPPRLPRPRPRPYDYPRP
shrunken log2 fold change: -0.305

RRIRSRPPRLPRPRPRPYERPRP
shrunken log2 fold change: -0.0323

RRIRSRPPRLPRPRPRPYFEPRP
shrunken log2 fold change: -0.359

RRIRSRPPRLPRPRPRPYFKPRP
shrunken log2 fold change: -0.857

RRIRSRPPRLPRPRPRPYFLPRP
shrunken log2 fold change: -0.885

RRIRSRPPRLPRPRPRPYGDPRP
shrunken log2 fold change: -0.115

RRIRSRPPRLPRPRPRPYGKPRP
shrunken log2 fold change: -0.0603

RRIRSRPPRLPRPRPRPYGTPRP
shrunken log2 fold change: -0.196

RRIRSRPPRLPRPRPRPYHMPRP
shrunken log2 fold change: -1.26

RRIRSRPPRLPRPRPRPYIDPRP
shrunken log2 fold change: -0.071

RRIRSRPPRLPRPRPRPYINPRP
shrunken log2 fold change: -0.879

RRIRSRPPRLPRPRPRPYLAPRP
shrunken log2 fold change: -0.251

RRIRSRPPRLPRPRPRPYMIPRP
shrunken log2 fold change: -1.11

RRIRSRPPRLPRPRPRPYMNPRP
shrunken log2 fold change: -0.479

RRIRSRPPRLPRPRPRPYMYPRP
shrunken log2 fold change: -0.466

RRIRSRPPRLPRPRPRPYNHPRP
shrunken log2 fold change: -1.54

RRIRSRPPRLPRPRPRPYNQPRP
shrunken log2 fold change: -0.642

RRIRSRPPRLPRPRPRPYPFPRP
shrunken log2 fold change: -0.716

RRIRSRPPRLPRPRPRPYPLPRP
shrunken log2 fold change: -0.105

RRIRSRPPRLPRPRPRPYRKPRP
shrunken log2 fold change: -0.901

RRIRSRPPRLPRPRPRPYSTPRP
shrunken log2 fold change: -1.05

RRIRSRPPRLPRPRPRPYTNPRP
shrunken log2 fold change: -1.46

RRIRSRPPRLPRPRPRPYVYPRP
shrunken log2 fold change: -0.852

RRIRSRPPRLPRPRPRPYWVPRP
shrunken log2 fold change: -0.314

RRIRTRPPRLPRPRPRPAAPPRP
shrunken log2 fold change: 0.275

RRIRTRPPRLPRPRPRPAASPRP
shrunken log2 fold change: 0.169

RRIRTRPPRLPRPRPRPACKPRP
shrunken log2 fold change: 0.172

RRIRTRPPRLPRPRPRPAESPRP
shrunken log2 fold change: 0.0351

RRIRTRPPRLPRPRPRPAETPRP
shrunken log2 fold change: 0.139

RRIRTRPPRLPRPRPRPAFRPRP
shrunken log2 fold change: -0.125

RRIRTRPPRLPRPRPRPAGTPRP
shrunken log2 fold change: 0.0902

RRIRTRPPRLPRPRPRPAHQPRP
shrunken log2 fold change: 3.43

RRIRTRPPRLPRPRPRPAKGPRP
shrunken log2 fold change: 0.0671

RRIRTRPPRLPRPRPRPAKRPRP
shrunken log2 fold change: 0.0872

RRIRTRPPRLPRPRPRPALMPRP
shrunken log2 fold change: 0.165

RRIRTRPPRLPRPRPRPALSPRP
shrunken log2 fold change: -0.0737

RRIRTRPPRLPRPRPRPAMGPRP
shrunken log2 fold change: 0.391

RRIRTRPPRLPRPRPRPAMLPRP
shrunken log2 fold change: -0.0605

RRIRTRPPRLPRPRPRPAMSPRP
shrunken log2 fold change: 0.00971

RRIRTRPPRLPRPRPRPANVPRP
shrunken log2 fold change: -0.0276

RRIRTRPPRLPRPRPRPAPWPRP
shrunken log2 fold change: 0.254

RRIRTRPPRLPRPRPRPAQTPRP
shrunken log2 fold change: 0.712

RRIRTRPPRLPRPRPRPARKPRP
shrunken log2 fold change: 0.179

RRIRTRPPRLPRPRPRPARVPRP
shrunken log2 fold change: 0.195

RRIRTRPPRLPRPRPRPATYPRP
shrunken log2 fold change: -0.169

RRIRTRPPRLPRPRPRPAWDPRP
shrunken log2 fold change: 0.454

RRIRTRPPRLPRPRPRPAYEPRP
shrunken log2 fold change: 0.164

RRIRTRPPRLPRPRPRPAYHPRP
shrunken log2 fold change: -0.0827

RRIRTRPPRLPRPRPRPCATPRP
shrunken log2 fold change: -0.0683

RRIRTRPPRLPRPRPRPCAVPRP
shrunken log2 fold change: -0.262

RRIRTRPPRLPRPRPRPCCVPRP
shrunken log2 fold change: -0.363

RRIRTRPPRLPRPRPRPCCYPRP
shrunken log2 fold change: -0.43

RRIRTRPPRLPRPRPRPCDWPRP
shrunken log2 fold change: -0.0538

RRIRTRPPRLPRPRPRPCEHPRP
shrunken log2 fold change: 0.00673

RRIRTRPPRLPRPRPRPCETPRP
shrunken log2 fold change: 0.0184

RRIRTRPPRLPRPRPRPCFPPRP
shrunken log2 fold change: -0.141

RRIRTRPPRLPRPRPRPCFRPRP
shrunken log2 fold change: -0.0887

RRIRTRPPRLPRPRPRPCGMPRP
shrunken log2 fold change: -0.0074

RRIRTRPPRLPRPRPRPCHLPRP
shrunken log2 fold change: 0.0039

RRIRTRPPRLPRPRPRPCHPPRP
shrunken log2 fold change: -0.0634

RRIRTRPPRLPRPRPRPCHWPRP
shrunken log2 fold change: -0.00233

RRIRTRPPRLPRPRPRPCLPPRP
shrunken log2 fold change: -0.0953

RRIRTRPPRLPRPRPRPCLTPRP
shrunken log2 fold change: -0.319

RRIRTRPPRLPRPRPRPCMMPRP
shrunken log2 fold change: -0.52

RRIRTRPPRLPRPRPRPCNEPRP
shrunken log2 fold change: -0.173

RRIRTRPPRLPRPRPRPCNFPRP
shrunken log2 fold change: -1.39

RRIRTRPPRLPRPRPRPCPHPRP
shrunken log2 fold change: -0.0429

RRIRTRPPRLPRPRPRPCPMPRP
shrunken log2 fold change: 0.00574

RRIRTRPPRLPRPRPRPCPNPRP
shrunken log2 fold change: -0.000921

RRIRTRPPRLPRPRPRPCQIPRP
shrunken log2 fold change: 0.0623

RRIRTRPPRLPRPRPRPCQSPRP
shrunken log2 fold change: 0.183

RRIRTRPPRLPRPRPRPCRCPRP
shrunken log2 fold change: -0.00986

RRIRTRPPRLPRPRPRPCSQPRP
shrunken log2 fold change: -0.018

RRIRTRPPRLPRPRPRPCVWPRP
shrunken log2 fold change: -0.000289

RRIRTRPPRLPRPRPRPCWDPRP
shrunken log2 fold change: -0.192

RRIRTRPPRLPRPRPRPCWLPRP
shrunken log2 fold change: -0.0724

RRIRTRPPRLPRPRPRPCWQPRP
shrunken log2 fold change: 0.0902

RRIRTRPPRLPRPRPRPCYCPRP
shrunken log2 fold change: -0.76

RRIRTRPPRLPRPRPRPCYDPRP
shrunken log2 fold change: -0.127
